Experiments:
Test in all cases: purified protein
purified protein [1] = substrate: NC(CCS)C(=O)O; type: biochemical, Thermus thermophilus; settings: 250 µM CH3-H4folate, SAM, aquacobalamin, DTT, pH 7.2, 50 °C, holo-tMS, DL-homocysteine varied
purified protein [2] = substrate: CN1c2c(nc(N)[nH]c2=O)NC[C@@H]1CNc1ccc(C(=O)N[C@@H](CCC(=O)O)C(=O)O)cc1; settings: 100 µM homocysteine, SAM, aquacobalamin, DTT, pH 7.2, 50 °C, holo-tMS (MeCbl), pH 7.2
purified protein [3] = substrate: C[S+](CC[C@H](N)C(=O)O)C[C@H]1O[C@@H](n2cnc3c(N)ncnc32)[C@H](O)[C@@H]1O; settings: 1.25 mM DL-homocysteine, 104 µM (6S)-methyltetrahydrofolate, 50 °C, holo-tMS, reactivation (reductive methylation of cob(II)alamin)

B1: tMS (full-length cobalamin-dependent methionine synthase) (Thermus thermophilus HB8) (protein)
chain: MVEVHACSPGCRHHLGGAGWGDAPLVRLGYNKEARAKKFPYLKALLERPLVFDGAMGTELQKRDLTPEDYGGEAYFGCPEVLNRTRPEVVREIHLAYLEAGAEVIETNTFGALRHVLAEYGLEEAAEELAFLGARIAREAADPHGAFVAGALGPGTKLVSLGQISWDALYRAYKEAARGLLKGGVDLILLETAQDILQVRCAVLAVREAMAEVGREVPLQVQVTFEATGTMLVGTDEQAALAALESLPVDVVGMNCATGPDLMDSKVRYFAEHSTRFVSCLPNAGLPRNEGGRVVYDLTPEELAKWHLKFVAEYGVNAVGGCCGTGPEHIRKVAEAVKGLAPKPRPESFPPQVASLYQAVSLKQEASLFLVGERLNATGSKRFREMLFARDLEGILALAREQVEEGAHALDLSVAWTGRDELEDLRWLLPHLATALTVPVMVDSTSPEAMELALKYLPGRVLLNSANLEDGLERFDRVASLAKAHGAALVVLAIDEKGMAKTREEKVRVALRMYERLTEHHGLRPEDLLFDLLTFPITQGDEESRPLAKETLLAMEELRERLPGVGFVLGVSNVSFGLKPRARRVLNSVFLDEARKRGLTAAIVDAGKILPISQIPEEAYALALDLIYDRRKEGFDPLLAFMAYFEAHKEDPGKREDAFLALPLLERLKRRVVEGRKQGLEADLEEALKAGHKPLDLINGPLLAGMKEVGDLFGAGKMQLPFVLQAAEVMKRAVAYLEPHMEKKGEGKGTLVLATVKGDVHDIGKNLVDIILSNNGYRVVNLGIKVPIEEILKAVEAHKPHAVGMSGLLVKSTLVMKENLEYMRDRGYTLPVILGGAALTRSYVEELRAIYPNVYYAEDAFEGLRLMEELTGHAPPELTRKAPARPKREAPKVAPRARPVGEAPAVPRPPFFGVRVEEGLDLATIAHYVNKLALYRGQWGYSRKGLSREAWQALVEREAEPVFQRLLKEAMAEGWLEPKVLYGFFPVAREGEELLVFSPETGEVLERFRFPRQKGGGLSLVDYFRPRFAAPLGDEADWMPKEAFRAGARDVLGVQLVTMGEAPSRKAQALFASGAYQDYLFVHGFSVEMTEALAEYWHKRMRQMWGIAHQDATEIQKLFQQGYQGARYSFGYPACPDLADQAKLDRLMGFHRVGVRLTENFQLEPEHATSALVVHHPEARYFSVD
notes: full-length wild type, five modules Hcy:Fol:Cap:Cob:Act, N-terminal His tag with TEV site (cut), E. coli BL21star(DE3); holoenzyme reconstituted with MeCbl; 132 kDa
Purified protein [1]
  Km: 9.3 ± 3.1 µM
Purified protein [2]
  Km: 18 ± 4.1 µM
Purified protein [3]
  Km: 1.0 ± 0.1 µM
